This is an account of results in the supplement of paper PMC12764529.

Series [1] can be described thus: folding stability dG unfold from trypsin proteolysis; higher = more stable. The method in brief:
(§1)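 Mini-proteins designed to be under 80 residues and free of cysteine were carried in a PA-tagged cDNA display construct and digested with trypsin and with chymotrypsin. Each protease was applied at 11 threefold-diluted concentrations, alongside a no-protease condition, before sequencing. K50 came from Bayesian fitting of the sequencing counts, and unfolding free energy was obtained by comparing it with a sequence-predicted unfolded-state K50 and a shared folded-state K50, for each protease separately or for both together. Designs were retained only if their AlphaFold2 dimer inter-PAE exceeded 15.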

A short description of series [2]: folding stability dG unfold (combined trypsin and chymotrypsin); higher = more stable. The procedure, abridged:
as §1

Series [3] can be described thus: folding stability dG unfold from chymotrypsin proteolysis; higher = more stable. The method in brief:
as §1

± gives the half width of the 95% confidence interval.

For “SAGGEAEVVARAEVTLPDGVKVEVEVVRVDGKLVVRVRVEVRLPPPPPPPPPPLPPLSEEERKKLAEASAGG [r13_760_TrROS_Hall]”, the “folding stability dG unfold” value in series [1] is 2.09 ± 0.091 kcal/mol; in series [2], 2.18 ± 0.22 kcal/mol; in series [3], 2.09 ± 0.16 kcal/mol.
The like results for “SAGGEAEVVEPEEKLEIVDKETGKKITVYKVKNKETGEEVVLVEIEKNGKKYTVLMTKDELEALLKKSAGGS [r16_603_TrROS_Hall]” were, in that order, 2.38 ± 0.21 kcal/mol, 2.98 ± 0.28 kcal/mol and 3.29 ± 0.057 kcal/mol.
The like results for “SAGGEEEAVEKPFYQLPEKKPLKTVPMSREEALALARENPDLGILYAEEDGKLWKVDAETGTIEPLGSAGGS [r16_214_JUSTAS]” were, in that order, 1.23 ± 0.043 kcal/mol, 1.46 ± 0.14 kcal/mol and 1.58 ± 0.11 kcal/mol.
As to “SAGGEEEEFEVVAEIEIEVDGKTYTITIVRDKETDEYRVEIRNKETGETKTITVSAEELEELLKALSSAGGS [r8_469_TrROS_Hall]”, the “folding stability dG unfold” value in series [1] came out at 3.17 ± 0.36 kcal/mol; in series [2], 4.77 ± 0.52 kcal/mol; in series [3] it was 4.77 ± 0.32 kcal/mol.
The like results for “SAGGEEVVEEPPPPEVEVIEIRDAETDRTVTLVYNKDTGKLFLFDEDTGLVYEFDVDGRLVRVERLPPSAGG [r13_101_TrROS_Hall]” were, in that order, 2.95 ± 0.26 kcal/mol, 4.16 ± 0.39 kcal/mol and 4.48 ± 0.1 kcal/mol.
In the same order, the values of “SAGGEEVVVERPPAPPPITVTIEYDEETNTVTVTVTLPNGETLTITVEAPSLEEAEAAARELLEALSSAGGS [r16_319_TrROS_Hall]” are 2.66 ± 0.28 kcal/mol, 2.93 ± 0.31 kcal/mol and 2.96 ± 0.37 kcal/mol.
The like results for “SAGGEFEVEELPPGGLLLVTFRAPADLPLEIPLEFTSPDGSPVEVAEYEREPFGDYVLITVLVRVPDSAGGS [r16_499_TrMRF]” were, in that order, 2.25 ± 0.16 kcal/mol, 2.73 ± 0.18 kcal/mol and 2.77 ± 0.16 kcal/mol.
As to “SAGGEFEVYRVKSPDSVVTVTVLPDRVVVNLTDEKNPKVVPIPYPPGHPPTLEDVLALLKSLGFKVEPSAGG [r13_687_TrMRF]”, the entries for the “folding stability dG unfold” value in series [1], in series [2] and in series [3] were 1.85 ± 0.033 kcal/mol, 1.79 ± 0.041 kcal/mol and 1.65 ± 0.043 kcal/mol, respectively.
The like results for “SAGGEFLEKVIEAAIEAAKAGPDAKLELTIPVPGGPVKVTIEVGEDGKVKVTIYKGDKKILEIELPLSAGGS [r16_611_TrMRF]” were, in that order, 3.85 ± 0.35 kcal/mol, greater than 6 kcal/mol and 4.62 ± 0.34 kcal/mol.
The like results for “SAGGEFRITFMVPADPNDPAVELAKWIADEFMPPGWKVEVDIKVVPSPDGYYMIDIPVEIMPPGQPISAGGS [r16_128_TrROS]” were, in that order, 1.71 ± 0.14 kcal/mol, 2.49 ± 0.18 kcal/mol and 2.81 ± 0.047 kcal/mol.
In the same order, the values of “SAGGEIAKRFAKYARDAGYDVRVDVEIIPPDEFPGLKPGKPYVIKVEIEVTPPNGPRRPLGEFTIMINSAGG [r13_874_TrROS]” are 2.13 ± 0.06 kcal/mol, 2.82 ± 0.08 kcal/mol and 3.18 ± 0.046 kcal/mol.
For “SAGGEIEILLEDGTLLRIRVELDEDGNLRVTVELFRLEPPPAPEVVVERREEREERRVLFADSAEDLSAGGS [r16_802_TrROS_Hall]”, the entries for the “folding stability dG unfold” value in series [1], in series [2] and in series [3] were 0.941 ± 0.06 kcal/mol, 1.75 ± 0.15 kcal/mol and 2.27 ± 0.1 kcal/mol, respectively.
Consider “SAGGEIPPNAKIDELEISPGSGYIRIKVEFYDPDGKPIWKMTITIPIKPVPRPSPEDQKEQNKKNKKSAGGS [r16_697_TrROS]”, for which the figures for the “folding stability dG unfold” value in series [1], in series [2] and in series [3] were 1.36 ± 0.18 kcal/mol, 2.39 ± 0.67 kcal/mol and 2.68 ± 0.12 kcal/mol, respectively.
The like results for “SAGGEKDLYLVKYRVEIKNDKGEKKEFPVTAIATSLEELEETLKALTPKNAEAKVEILEVKPLKEVLSSAGG [r13_513_TrMRF]” were, in that order, 1.86 ± 0.091 kcal/mol, 1.72 ± 0.1 kcal/mol and 1.55 ± 0.038 kcal/mol.
In the same order, the values of “SAGGEKVKLRIYVYRRTVERDPATGELRERYELVEEIEIEVEPGETLEDILAKLKLPPGWRIVRVERESAGG [r13_716_TrROS_Hall]” are 4.39 ± 0.091 kcal/mol, 5.24 ± 0.076 kcal/mol and 5.424 ± 0.053 kcal/mol.
In the same order, the values of “SAGGEKVKRVLVRDKKTKEWREVEVKEAKVEPPPVITIKIELSEEEAKKLAELLRKLFPDAKVTVVKSAGGS [r8_437_TrROS_Hall]” are 4.15 ± 0.35 kcal/mol, 3.98 ± 0.31 kcal/mol and 3.82 ± 0.24 kcal/mol.
Take “SAGGEMELTLTVTIKVENLTKEQIEEELRKLLEELGFEIEEITVEYDEENKTITVTVRIRLPPLEDLSAGGS [r16_287_TrROS_Hall]”: the figures for the “folding stability dG unfold” value in series [1], in series [2] and in series [3] were 3.15 ± 0.27 kcal/mol, 3.15 ± 0.25 kcal/mol and 2.98 ± 0.23 kcal/mol, respectively.
In the same order, the values of “SAGGEMVEIVVKFKTKEELEAAIRAALPPGATVEVTVEEKDGELYLTITVPKENAERLREALKKALESAGGS [r16_43_TrROS_Hall]” are 4.2 ± 0.28 kcal/mol, 4.57 ± 0.28 kcal/mol and 4.48 ± 0.13 kcal/mol.
